These results are taken from the nanobody polyreactivity screen of Harvey et al. (2022).

This data set in a line: yeast display, Sf9 membrane polyspecificity reagent, FACS + sequencing; frameworks hold sequencing errors. A digest of the protocol:
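Sorting gates, low and high (top ~1%), were placed on anti-HA fluorescence to track expression and on streptavidin fluorescence to track reagent binding. A clone's polyreactivity label is taken from the gate it came out of. The reagent was 10% biotinylated, detergent-solubilized Sf9 membrane, applied for 1 hour at 4 °C to galactose-induced yeast display cells.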
For the sequence “QVQLEDSGGGLVQAGGTLRLRCAASGITFGTNDMGWYRKAPGKETELVAAIDGSGETYYADSVKGRFTISRDNAKNTVYLLMNSLKPVDTAVYYCAADVIYWFSGEYDYWGQGTQVIVSS”, the “polyreactivity (PSR sort gate)” value is listed as “low polyreactivity”.

For the sequence “QVQLEDSGRGLFQAGGSLRLSCAASGSIVALYTMGWYRQAPGKEREFVAGIRTGGSTIYADSVKGRFTISRDNAKNTVYLQMNSRKPEDTPVYYDDWGQGTQVTVSS”, the “polyreactivity (PSR sort gate)” value is listed as “low polyreactivity”.

As to “QVQLEESAGGIVQAGGSLRFSCAASGSTISAYDIGCYRQEPGKEWELVAAITWIGGNTYYADSVKGRFTISRDTAKNTVYLQMNSLKPEDTEFYYCAAEEVPYDRDMDYWGQGTQVTVSS”, the “polyreactivity (PSR sort gate)” value is given as “low polyreactivity”.

As to “QVQLEESAGRLVQAGGSLRLSCAASGFIISPYAMGWYRQAPGKERELVAAISWSGVYTYYADTVKGRFTISRDNAKNTVYLQMNSLKPEDSAVYYCATYGTVYYWGQGTQVTVST”, the “polyreactivity (PSR sort gate)” value is “high polyreactivity”.

On to “QVQLEESAGRLVQAGGSLRLSCAASGYTFGYYAMGWYRQAPGKERQLVAAISWRGARTNYADSVKGRFTISRDNAKNTVYLQMNSLKPEDTAVYYCAAGYYYGYPPRDYWGQGTQVTVSS”, for which the “polyreactivity (PSR sort gate)” value is “high polyreactivity”.

As for “QVQLEESAGRLVQARGSLRLSCAASGSTFGYNAMGWDSQAPGKARELVAALTRRGGRTYYADSVKGRFTISRDNAKNTVYLQMNSLKPEDTAVYYCAATSRGSGQRPGEAIIDYYYWGQGTQVTVSW”, the “polyreactivity (PSR sort gate)” value was “high polyreactivity”.

Regarding “QVQLEESCGGLVQAGGSHRLSCAASGSTIYNNAMGWYRQAPRKERELVAAISSGGGITYYADSVKGRFTISRDNAKNSVYLQMNSLKPEDTAVYYCNARRIYLGYNYWGQGTQVTVSS”, the “polyreactivity (PSR sort gate)” value is “high polyreactivity”.

In the case of “QVQLEESCGGLVQAGGSLRLSCAASGPIIRAYAMGWYRQAPGKERELVAAITRSGGSTYYADSVKGRFTISLDNAKNTVYLQMNSLKPEDTAVYYCNARTRYDDGYDSWGQGTQVTVSS”, the “polyreactivity (PSR sort gate)” value was “high polyreactivity”.

For “QVQLEESGAGLVQAGGSLRLSCAASGRTFWFYTMGLYRQAPGKERELVAAISSAGSTNYADSVKGRFTISRDNAKNTVYLQMNSLKPEDTAVYYCNARFPVGPSEDAVWYYPKYDYWGQGTQVTVSS”, the “polyreactivity (PSR sort gate)” value is “low polyreactivity”.

For the sequence “QVQLEESGAGLVQAGGSLRLSCAASGSIFNLYAMGWYRQAPGKEMELVAAINWSGGSTYYADSVKGRFTISRDNAKNTVYLQMNSLKPEDTAVYYCAADAYSTYYGYEGDYWGQGTQVTVSS”, the “polyreactivity (PSR sort gate)” value was “low polyreactivity”.

With “QVQLEESGAGLVQAGGSLRLSCAASVFTFCCTTMGRSRPAPGKESELVATISRTGGITYYADSVKGRFTISRDNAKNTVNLQMNSLKPEDTAVYYCILRYYWGQVTQVTVSS”, the “polyreactivity (PSR sort gate)” value is recorded as “high polyreactivity”.

For the sequence “QVQLEESGAGLVQAGGSLRLTCAASGSTFYSNVMGWYRQAPGKEREFVAGISGSGGSTYYADSVKGRFTISRDNGNISVYLLINSLKPEDPAVYYCKAVRYPRLLYYWGQGTQVNVSS”, the “polyreactivity (PSR sort gate)” value is given as “high polyreactivity”.

Regarding “QVQLEESGGCLVQAGGSLRLSCAASGFTFRSYAMGWYRQAPGKERELVAAISSGGSTYYADSVKGRFTISRDNAKITVYLKMNSLKPEDTAVYYCAARRYYGYGHWGQGTHVTVSS”, the “polyreactivity (PSR sort gate)” value is “high polyreactivity”.

As for “QVQLEESGGCLVQAGGSLRLSCAASGSTFVYNVMGWYRQAPGKERELVAAITSGVRTYYADSVKGRFTISRDNAKNTVYLQMNSLKPEDTAGYYCATGWRYAKYYYWGQGTQVTVSS”, the “polyreactivity (PSR sort gate)” value was “high polyreactivity”.

Take “QVQLEESGGGIVQAGGSLRLSCAASGRIFRIYAMGWYRKAPGKERELVARITYSGGSTYYADSVKGRFTISRDKAKNTVYLQMNSLKPEDTAVFYCAADWLFYQYGYWGQGTQVTVSS”: the “polyreactivity (PSR sort gate)” value is listed as “low polyreactivity”.

Turning to “QVQLEESGGGLCQAGGSLRLSCAPSGSIFVSNAMVCYRQAPGKERELVAAITYNGGRTFYADSVKGRFTISRDNAKNTVYLQLNSLKPEDTAVYYFAADGSWHGYGYWGQGTQVTVSS”, the “polyreactivity (PSR sort gate)” value is “low polyreactivity”.

In the case of “QVQLEESGGGLDQAGGSLRLSCAASGSIFYYYAMGWYRQAPGKERELVAVIDFSGASTSYAVSVKGRFTISRDNAKITVYLQMNSLKPEDTAVYYCAADRRSKYDYWGQGTQVTVSS”, the “polyreactivity (PSR sort gate)” value is listed as “low polyreactivity”.

Turning to “QVQLEESGGGLVQAGGRLRLSCAASGRTFSTYAMGWYRQATGKERELVAAITRRGGSTSYADSVKGRFTISRDNANNTVYLQMNSLNPEDTAVYYCARENPGDSYYDYWGQGTQVTVSS”, the “polyreactivity (PSR sort gate)” value is “low polyreactivity”.

With “QVQLEESGGGLVQAGGRLRLSCAASGSTFVRSVMGSYRAAPGKERELVAAISEGGGSTYYADSVKGRFTISRDNAKNTVYLQMNSLKPEDTAVYYCAAEGYFRYWYGTIQYDYWGQGTQVTVSS”, the “polyreactivity (PSR sort gate)” value is recorded as “high polyreactivity”.

For the sequence “QVQLEESGGGLVQAGGSHRLSCAASGFTFIDNAMGSYRQAPGKERELVAAISISGGRTYYADSVKGRFTISRDNAKNTVYLQMNSLKPEDTAVYYCAAGKHRRDDYWGQGTQVTVSS”, the “polyreactivity (PSR sort gate)” value was “high polyreactivity”.

As for “QVQLEESGGGLVQAGGSIRLSCAASGRTIVYNAMGWYRQAPGNERELVDAIDGGGDRTYYADSVKGRFTISRDNAKITVYLQMNRLKPEDTAVYYCARDPGDTYYYSYPEGDYWGQGTQVSVSS”, the “polyreactivity (PSR sort gate)” value is on record as “low polyreactivity”.

As to “QVQLEESGGGLVQAGGSLRFSFAASGSIFRYYAMGWYRQAPGKERELVANISRGCSTYYADSVKGRFTISRDNAKKTVYLQMNSLKPDDTAVYYCAADISERYDYWGQGTQVTVSS”, the “polyreactivity (PSR sort gate)” value is given as “high polyreactivity”.

As to “QVQLEESGGGLVQAGGSLRISCAASVRILSWYAIGWYRQAPGKERELVAAISVRGSTYYADSVKGRFTISRDNAKNTVYLQMNSLKPDDTAVYYSNRVWLQASTTIVVSSRRLYYWGLGTQVTVSS”, the “polyreactivity (PSR sort gate)” value is given as “high polyreactivity”.

On to “QVQLEESGGGLVQAGGSLRLSCAASGFIFDYYAMGWYRQAPGKERELVAAISSSGGSTYADSVKGRFTISRDNAKNTVYLQMNSLKPEDTAVYYCAADWYKRPPYDYWGQGTQVTVSS”, for which the “polyreactivity (PSR sort gate)” value was “low polyreactivity”.

For the sequence “QVQLEESGGGLVQAGGSLRLSCAASGFIFGLNAMGWYRQAPGKERELVAGIRSGSSTNYADSVKGRFTISRDNAKNTVYLQMNSLKPEDTAVYYCATEGYWVYGFDDEYWGQGTQVTVSS”, the “polyreactivity (PSR sort gate)” value is “low polyreactivity”.

Consider “QVQLEESGGGLVQAGGSLRLSCAASGFIFGRNAMGWYRQAPGKERELVAAITRSGGSTYYADSVKGRFTISRDNAKNTVYLQMNSLKPEDTAVYYCAKGVFTWGVFRVGIRDDYWGQGTQVTVSS”, for which the “polyreactivity (PSR sort gate)” value is recorded as “high polyreactivity”.

For the sequence “QVQLEESGGGLVQAGGSLRLSCAASGFTFNKYAMGWYRQAPGKERELVDAISSSGGSTRYADSVKGRFKISRDNAKNTVYLQMNSLKPEDSAVYYCAVYVTRDSGWWLYDYWGQGTQVTVAS”, the “polyreactivity (PSR sort gate)” value is reported as “high polyreactivity”.

Regarding “QVQLEESGGGLVQAGGSLRLSCAASGFTFRYYAMGWYRQAPGKERELVASISSSGGSTNYADSVKGRFTISRDNAKNTVYLQMNSLKPEDTAVYYCAVPPYTWLYDYWGQGTQVTVSS”, the “polyreactivity (PSR sort gate)” value is on record as “high polyreactivity”.

As to “QVQLEESGGGLVQAGGSLRLSCAASGFTFSYYAMGWYRQATGKERELVAAITSSAGSTYYADSVKGRFTISRDYAKNSFYLQMTSLKPEDTEVYYCYAVYSKLNGGYDYWGQGTQVTVSS”, the “polyreactivity (PSR sort gate)” value is reported as “low polyreactivity”.

Take “QVQLEESGGGLVQAGGSLRLSCAASGFTFVYYAMGRYRQATGKERELVAAISWRDGDTYYADSVKGRFTISRDNAKNTVYVQMNSLKPEDTAVYYCAADYSYFKDDDWGQGTQVTVSS”: the “polyreactivity (PSR sort gate)” value was “low polyreactivity”.

Regarding “QVQLEESGGGLVQAGGSLRLSCAASGFTFWLYAMGWYRQAPGKEREFVAAISTSGGSTYADSVKGRFTISRDNAKNTVYLQMNSLKPEDTAVYYCNAGYLLYYDYHLFYWGQGTQVTVSS”, the “polyreactivity (PSR sort gate)” value is given as “low polyreactivity”.

Consider “QVQLEESGGGLVQAGGSLRLSCAASGFTFYIYALGWYRQAPGKERELVAAISSSGTRTYYADSVKGRFTISRDNAKNTVYLQMNSLKPEDTAVYYCAATRYSWHNRVSRRHRYDYWGQGTQVTVSS”, for which the “polyreactivity (PSR sort gate)” value is “high polyreactivity”.

Regarding “QVQLEESGGGLVQAGGSLRLSCAASGFTIRLYARGWYRQAPGKVRELVAAITSGGSTYADSVKGRFTISRDNAKNTVYLQMNSLKPEDTAVNYCAAVSRYWAKYEYWGQGTQVTVSS”, the “polyreactivity (PSR sort gate)” value was “high polyreactivity”.

In the case of “QVQLEESGGGLVQAGGSLRLSCAASGFTSYYAMGWYRQAPGKERELVAAIRYSTVSTYYADAVKGRFTISRDNAKNTVYLQMNIMKPEDTAVYYCAAQRRPYLPGHYYYWGQGTQVTVSS”, the “polyreactivity (PSR sort gate)” value is on record as “high polyreactivity”.

In the case of “QVQLEESGGGLVQAGGSLRLSCAASGGILVFYALGWYRQAPGTERELVAAINVSGRSTYYADSVKGRFTISRDNAKNTVYVQMNSLKPEDTAVYYCAADYYYVWYDYWGQGTQVTVSS”, the “polyreactivity (PSR sort gate)” value is given as “low polyreactivity”.

Consider “QVQLEESGGGLVQAGGSLRLSCAASGIIFKLYAMGWYRQAPGKERELVAAITYRGGTTYYADSVKGRFTISRDNAKNTDYLQMNSLKPEDTAVYYCAVAVTSYSSKKLYYWGQGTQVTVSS”, for which the “polyreactivity (PSR sort gate)” value was “low polyreactivity”.

For the sequence “QVQLEESGGGLVQAGGSLRLSCAASGINLTGYTMGWYRKATGKERQLVAAITYGGTSTYYADSVKGRFTISRDNAKNTVYLQMNSLKPEDTAVYYCAALYRGPRYGYWGQGTQVTVSS”, the “polyreactivity (PSR sort gate)” value is on record as “high polyreactivity”.

As for “QVQLEESGGGLVQAGGSLRLSCAASGISFDTYAMGRNRPAPGKERELVAAMSSSGSTNYADSVKGRFTISRDNAKKTVYLQMNSLKPEDTADYYCATDYWPGTGGTYDYWGQGTQVTVSS”, the “polyreactivity (PSR sort gate)” value is listed as “low polyreactivity”.

On to “QVQLEESGGGLVQAGGSLRLSCAASGITFEYYAMVWYRQAPGKERELVAANDTGGSTNYADSVKGRFTISRDNAKNTVYFLMNSLKPEDTEVYYCAADWSWWDGEDYHFEYDYWGQGTQVTVSS”, for which the “polyreactivity (PSR sort gate)” value is “low polyreactivity”.

In the case of “QVQLEESGGGLVQAGGSLRLSCAASGITFLNYAMGWYRQAPGKERELVAAISWSGGRTYYADSVKGRFTISRDNAKNTVYLQMNSLKPEDTAVYYCAVRGSWYSEHNYWGQGTQVTVSS”, the “polyreactivity (PSR sort gate)” value is given as “high polyreactivity”.

Regarding “QVQLEESGGGLVQAGGSLRLSCAASGITFYYYAMGWYRRAPGKERELVAANSSGGSKSYADSVKGRFTISRDNAKNNVYLQMNSLKPDDSAVYYCAADLPYLWYPFYYWGQGTQVTVSS”, the “polyreactivity (PSR sort gate)” value was “high polyreactivity”.
